Values of other authors as cited in publication PMC6719960.

Target: claudin-4 (UniProt O14493)
UniProt O14493, sequence (O14493 whole entry): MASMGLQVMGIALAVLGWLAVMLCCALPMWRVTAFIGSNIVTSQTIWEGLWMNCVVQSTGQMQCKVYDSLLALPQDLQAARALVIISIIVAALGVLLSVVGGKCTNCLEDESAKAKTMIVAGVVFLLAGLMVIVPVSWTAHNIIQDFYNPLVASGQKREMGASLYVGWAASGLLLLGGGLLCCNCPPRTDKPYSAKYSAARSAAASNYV

For “C-CPE C-terminal fragment (from UniProt P01558)”, the Kd is listed as 0.5 nM.
